# The supplement of paper PMC7877785
# ± gives the uncertainty stated by the source.
# Assay: self-splicing fitness, log relative to wild type (ln ratio); higher = more splicing; Tetrahymena group I intron in knt gene, E. coli kanamycin selection, DiMSum; sequences stand for … in CUCUCU…GGAGGGAAAAGUUAUCAGGCAUGCACCUGGUAGCUAGUCUUUAAACCAAUAGAUUGCAUCGGUUUAAAAGGCAAGACCGUCAAAUUGCGGGAAAGGGGUCAACAGCCGUUCAGUACCAAGUCUCAGGGGAAACUUUGAGAUGGCCUUGCAAAGGGUAUGGUAAUAAGCUGACGGACAUGGUCCUAACCACGCAGCCAAGUCCUAAGUCAACAGAUCUUCUGUUGAUAUGGAUGCAGUUCACAGACUAAAUGUCGGUCGGGGAAGAUGUAUUCUUCUCAUAAGAUAUAGUCGGACCUCUCCUUAAUGGGAGCUAGCGGAUGAAGUGAUGCAACACUGGAGCCGCUGGGAACUAAUUUGUAUGCGAAAGUAUAUUGAUUAGUUUUGGAGUACUCGUGGUCG
# Method in brief: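 DiMSum derived fitness as the error-weighted combination of fold changes across replicates, kanamycin versus no kanamycin, normalised to wild type. E. coli BL21(DE3) held the library, which randomised all eight P1ex-region intron nucleotides within the knt kanamycin-resistance gene on pET-22b(+). Six replicate transformations grew overnight at 37°C or 30°C on LB agar with or without 25 μg/mL kanamycin, also containing 100 μg/mL carbenicillin, 50 μM IPTG and 0.2% rhamnose, and pooled colonies were amplicon-sequenced on an Illumina HiSeq 2500.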
Sequence,self-splicing fitness (ln) (30 °C),self-splicing fitness (ln) (37 °C)
CAUGAGCAAUAUUACGUGAA,-3.86 ± 0.3,-2.53 ± 0.29
CUUUAGCAAUAUUACGUGCA,-2.93 ± 0.23,-2.75 ± 0.25
CUCAAGCAAUAUUACGGUGC,-4.1 ± 0.31,-3.19 ± 0.27
UACGAGCAAUAUUACGGGCA,-1.77 ± 0.089,-0.925 ± 0.087
CGCUAGCAAUAUUACGUCUA,-2.47 ± 0.22,-1.59 ± 0.34
AUGCAGCAAUAUUACGCUAU,-2 ± 0.12,-1.33 ± 0.14
GGCUAGCAAUAUUACGGCCA,-1.53 ± 0.21,-0.776 ± 0.26
GAAGAGCAAUAUUACGAGCA,–,-1.33 ± 0.33
GUUGAGCAAUAUUACGUGUU,-3.15 ± 0.25,-2.29 ± 0.3
CGGGAGCAAUAUUACGACGA,-1.82 ± 0.36,–
GAUUAGCAAUAUUACGUCUU,-0.485 ± 0.086,-0.732 ± 0.088
CGGUAGCAAUAUUACGAAUG,-0.573 ± 0.076,0.205 ± 0.097
GGCUAGCAAUAUUACGGGAC,-3.59 ± 0.3,-0.762 ± 0.21
GCCCAGCAAUAUUACGACUU,-1.45 ± 0.095,-0.824 ± 0.1
GAUGAGCAAUAUUACGCUCU,-3.24 ± 0.36,-2.02 ± 0.44
ACCGAGCAAUAUUACGAAGG,-2.76 ± 0.17,-2.7 ± 0.28
CUACAGCAAUAUUACGAAAA,-2.2 ± 0.21,-1.92 ± 0.21
AUCAAGCAAUAUUACGUCGU,-1.5 ± 0.052,-0.574 ± 0.071
GGGAAGCAAUAUUACGGGUU,-3.15 ± 0.21,-1.36 ± 0.15
UUAGAGCAAUAUUACGCUGG,-1.75 ± 0.11,-0.227 ± 0.18
GAUAAGCAAUAUUACGACCA,-1.18 ± 0.14,-0.0759 ± 0.21
AAGAAGCAAUAUUACGCUCU,-3.54 ± 0.24,-1.37 ± 0.18
CGAUAGCAAUAUUACGCGCU,-0.899 ± 0.12,-1.02 ± 0.12
CCCAAGCAAUAUUACGGUUU,-3.72 ± 0.12,-2.92 ± 0.11
GGUAAGCAAUAUUACGGCCA,-1.91 ± 0.39,–

Sequence,self-splicing fitness (ln) (30 °C),self-splicing fitness (ln) (37 °C)
GGCUAGCAAUAUUACGAUGC,-1.03 ± 0.15,-0.519 ± 0.28
UACAAGCAAUAUUACGCGUC,-2.06 ± 0.1,-1.23 ± 0.14
CUGGAGCAAUAUUACGUGUC,-3.17 ± 0.2,-3.18 ± 0.27
UCACAGCAAUAUUACGCUGC,-2.78 ± 0.22,-2.09 ± 0.23
AUUUAGCAAUAUUACGUCCC,-0.0323 ± 0.37,-0.682 ± 0.42
UGUAAGCAAUAUUACGAGAC,-3.68 ± 0.43,-0.552 ± 0.26
GAUGAGCAAUAUUACGCAGA,-3.98 ± 0.43,-0.801 ± 0.19
ACUAAGCAAUAUUACGACAG,-0.663 ± 0.085,-0.322 ± 0.11
CCCCAGCAAUAUUACGCUGA,-3.97 ± 0.2,-2.42 ± 0.17
AACAAGCAAUAUUACGUGAU,-2.2 ± 0.069,-1.46 ± 0.08
AUAAAGCAAUAUUACGGCUC,0.203 ± 0.11,1.04 ± 0.15
ACUCAGCAAUAUUACGUUCC,-2.15 ± 0.22,-0.606 ± 0.2
GCGUAGCAAUAUUACGGAUC,-0.345 ± 0.079,0.215 ± 0.088
AUCAAGCAAUAUUACGUAAU,-1.1 ± 0.056,-0.247 ± 0.081
ACUCAGCAAUAUUACGCAGA,-3.11 ± 0.2,-2.55 ± 0.22
GCGAAGCAAUAUUACGGAUU,-1.33 ± 0.13,-1.17 ± 0.15
CCUAAGCAAUAUUACGCCAC,-2.75 ± 0.22,–
UACGAGCAAUAUUACGCUGU,-2.78 ± 0.28,-1.47 ± 0.39
UCGUAGCAAUAUUACGAGAC,-1.72 ± 0.37,-3.18 ± 0.37
GGGUAGCAAUAUUACGUUAG,–,-1.78 ± 0.43
UCGAAGCAAUAUUACGUGUU,-3.56 ± 0.2,-2.47 ± 0.19
AGUUAGCAAUAUUACGCGGG,-4.1 ± 0.33,-0.533 ± 0.15
AUCCAGCAAUAUUACGACUG,-3.86 ± 0.3,-2.95 ± 0.28
GGAAAGCAAUAUUACGGAAG,-4.32 ± 0.22,-1.93 ± 0.15
GACAAGCAAUAUUACGAGCC,-1.08 ± 0.18,-0.366 ± 0.15

Sequence,self-splicing fitness (ln) (30 °C),self-splicing fitness (ln) (37 °C)
UUUCAGCAAUAUUACGAACG,-0.381 ± 0.11,0.41 ± 0.14
CCGGAGCAAUAUUACGAGCG,-0.715 ± 0.082,0.256 ± 0.12
UGAUAGCAAUAUUACGUUUC,-2.72 ± 0.22,-2.29 ± 0.41
AGAAAGCAAUAUUACGGUCC,-0.555 ± 0.12,0.317 ± 0.16
AAUCAGCAAUAUUACGGUGA,-0.138 ± 0.076,0.345 ± 0.087
UAAUAGCAAUAUUACGGAUA,-1.97 ± 0.17,-1.83 ± 0.2
GUCAAGCAAUAUUACGGAUC,-2.77 ± 0.1,-1.09 ± 0.093
UUAAAGCAAUAUUACGUGAU,-3.01 ± 0.15,-1.15 ± 0.14
GGUUAGCAAUAUUACGUAAU,-2.05 ± 0.22,-0.725 ± 0.21
AGCCAGCAAUAUUACGUACU,-0.0754 ± 0.072,0.219 ± 0.086
UCCAAGCAAUAUUACGCCAG,–,-1.9 ± 0.28
CCACAGCAAUAUUACGGGCA,-3.53 ± 0.15,-2.92 ± 0.15
GACCAGCAAUAUUACGACCU,0.00245 ± 0.074,-0.389 ± 0.073
GUCGAGCAAUAUUACGUAAU,-0.411 ± 0.065,-0.515 ± 0.09
AUAAAGCAAUAUUACGAGUC,-3.52 ± 0.13,-2.07 ± 0.14
AGGUAGCAAUAUUACGGAUU,-1.553 ± 0.014,-0.618 ± 0.033
GGUUAGCAAUAUUACGCGAA,-0.818 ± 0.25,-0.0649 ± 0.35
UGUAAGCAAUAUUACGCGUU,-2.69 ± 0.26,-0.234 ± 0.2
GGCUAGCAAUAUUACGGUUA,0.156 ± 0.084,0.606 ± 0.089
UAAUAGCAAUAUUACGUCUU,-3.1 ± 0.17,-1.1 ± 0.11
ACGGAGCAAUAUUACGCCGG,-1.09 ± 0.38,–
UGUGAGCAAUAUUACGUACC,-1.1 ± 0.23,-0.269 ± 0.28
UACGAGCAAUAUUACGCUUU,-4.61 ± 0.42,-2.4 ± 0.22
GGUUAGCAAUAUUACGGAUC,-1.53 ± 0.18,0.131 ± 0.28
GCGGAGCAAUAUUACGCGCU,-1.88 ± 0.4,–

Sequence,self-splicing fitness (ln) (30 °C),self-splicing fitness (ln) (37 °C)
CUGAAGCAAUAUUACGGUAG,-0.283 ± 0.054,-0.509 ± 0.061
CCUUAGCAAUAUUACGUCGC,-3.07 ± 0.4,-2.66 ± 0.38
GGUCAGCAAUAUUACGCCGG,-2.68 ± 0.27,-2.79 ± 0.3
UGUAAGCAAUAUUACGAUUU,-1.82 ± 0.17,-1.24 ± 0.14
AGGUAGCAAUAUUACGGACA,-0.694 ± 0.017,-0.397 ± 0.034
GUACAGCAAUAUUACGAGCU,-2.18 ± 0.15,-1.51 ± 0.15
CCAGAGCAAUAUUACGAAAA,-2.94 ± 0.32,-1.54 ± 0.35
UCGUAGCAAUAUUACGACAA,-2.42 ± 0.29,-1.5 ± 0.24
UUAAAGCAAUAUUACGCACG,-0.443 ± 0.092,0.47 ± 0.14
GACAAGCAAUAUUACGGCCA,-0.973 ± 0.11,-0.192 ± 0.15
AGACAGCAAUAUUACGAAAC,-3.76 ± 0.27,-2.66 ± 0.34
GACAAGCAAUAUUACGGAAC,-1.94 ± 0.1,-1.69 ± 0.17
GUCCAGCAAUAUUACGGAGU,-0.181 ± 0.063,-0.404 ± 0.084
ACUAAGCAAUAUUACGAGGC,-3.03 ± 0.23,-2.48 ± 0.25
ACACAGCAAUAUUACGUGCC,-1.71 ± 0.12,-0.549 ± 0.093
AGAUAGCAAUAUUACGCGGA,-2.98 ± 0.13,-0.482 ± 0.093
GUGUAGCAAUAUUACGUUAU,-2.81 ± 0.16,-2.41 ± 0.2
CGCCAGCAAUAUUACGCCUU,-3.11 ± 0.27,-2.29 ± 0.26
UGCCAGCAAUAUUACGGACU,-0.709 ± 0.075,0.139 ± 0.089
CUAUAGCAAUAUUACGACAG,0.0925 ± 0.097,0.0869 ± 0.11
UUUGAGCAAUAUUACGAACG,–,-0.865 ± 0.26
GGGCAGCAAUAUUACGAACU,-0.431 ± 0.065,-0.278 ± 0.09
UCUGAGCAAUAUUACGUCUU,-2.36 ± 0.21,-2.9 ± 0.24
